Test results reported in the Human Domainome abundance scans (Beltran et al. 2025).

B1: WW domain-containing transcription regulator protein 1, residues 116 to 162; numbered along this chain, Q9GZV5 (parent)
chain: QSYDVTDELPLPPGWEMTFTATGQRYFLNHIEKITTWQDPRKAMNQP

Variants of: B1
Test: abundance fitness (aPCA) (normalised: wild type 0, dead -1); higher = more abundant; growth selection in yeast, the domain comes from the species named
Settings: Homo sapiens

Abundance fitness of substitutions, site by site:
M17: D -0.414 | T -0.094 | V -0.05 | F -0.172 | I -0.09 | E 0.017 | H -0.44 | C -0.035
D39: M -0.789 | V -0.721 | I -0.469 | H -0.202 | Y -0.709 | F -0.618 | C -0.572
N45: Y 0.039 | G -0.04 | W -0.043 | R -0.109 | S -0.093 | D -0.092
K42: Q -0.105 | G -0.141 | W -0.304 | M -0.202 | E -0.052 | A -0.113 | P -0.161 | R -0.111 | S -0.203
A43: C -0.056 | K -0.006 | Q -0.056 | D 0.071 | F -0.016 | P -0.014 | T 0.027 | E -0.018 | L -0.008
N29: P -1.11 | Q -0.779 | D -0.42 | L -1.01 | V -1.09 | M -1.02 | T -0.847 | H -0.278
R41: Q -0.447 | H -0.719 | T -0.4 | F -0.902 | E -0.73
T20: N -0.081 | H -0.451 | K -0.873 | A -0.287 | W -1
A21: I -0.1 | H -0.108 | D -0.029 | T -0.039 | N 0.019 | K -0.019 | M -0.079 | Q -0.272 | W -0.448
Q24: L -0.364 | D 0.017 | K -0.14 | A -0.124
K33: M -0.284 | S -0.177 | F -0.683 | A -0.209 | D -0.517 | H -0.2 | V -0.905
E16: C -0.28 | V -0.193 | P -0.864 | H -0.684 | Q -0.035 | A -0.217 | W -0.389
S2: P -0.45 | M -0.017 | Y -0.226 | A -0.255 | H 0.149 | D 0.057
Y26: G -0.661 | V -0.322 | F -0.265 | D -0.739
P12: Y -0.61 | E -0.601 | M -0.862 | K -0.782 | N -0.556 | I -0.873 | G -0.49
R25: A -0.261 | H -0.385 | Q -0.116 | F -0.451 | E -0.26 | T -0.295 | M -0.232 | D -0.934 | K -0.016
Q38: V -0.108 | I 0.005 | S -0.109 | K -0.037 | L -0.031 | A -0.103 | H -0.096 | P -0.879 | M -0.044
T6: Q -0.142 | E -0.216 | Y -0.189 | P -0.013 | H -0.352 | N -0.198 | R -0.086 | M -0.008 | S -0.03
G23: R -0.369 | D -0.361 | H -0.476 | S -0.565
I31: N -0.162 | V -0.094 | L -0.375 | P -0.331 | S -0.182 | G -0.273
T18: Q 0.045 | K 0.097 | E -0.064 | M -0.056 | S 0.05 | Y -0.086
H30: Q -0.076 | W -0.378 | I -0.412 | R -0.075 | E -0.167 | N -0.088 | P -0.218 | D -0.247
Q46: M -0.098 | V -0.018 | I -0.044 | G -0.058 | S -0.053 | D 0.058 | Y -0.221
P10: K -0.115 | G -0.12 | H -0.181 | W -0.393 | S -0.109 | A -0.088 | I -0.174 | F -0.342
